Blank lines part the entries; values can stand above or below the substance they belong to.
Tests used:
[1] = biological target: ACP-GluA1 (GluA1 tagged with the acyl carrier protein at its N-terminus) (mouse); assay: single-molecule fluorescence tracking (TIRF), colocalization durations, single colour; living HEK293 cells, plasma membrane, 33 ms per frame, colocalization = two spots within 240 nm; duration histograms fitted with a single exponential, lifetimes corrected for photobleaching; 37 °C (monomer references ACP-TM and Halo7-TM at 22 °C); GluA1 and GluA2 homodimers also with TARP2-mGFP overexpression (lifetimes not significantly altered)
[2] = biological target: Halo7-GluA2 (GluA2 tagged with Halo7 at its N-terminus, pcDNA3.1B) (UniProt P23819); assay: single-molecule fluorescence tracking (TIRF), colocalization durations, simultaneous two colours; living HEK293 cells, plasma membrane, ATTO594 on ACP tags and rhodamine110 on Halo7 tags, colocalization = within 240 nm; lifetimes corrected for photobleaching; 37 °C (ACP-TM with Halo7-TM at 22 °C)
[3] = biological target: Halo7-GluA1 (GluA1 tagged with Halo7 at its N-terminus, pcDNA3.1B) (mouse); assay: as above
Target sequence in this assay (P23818 19-907): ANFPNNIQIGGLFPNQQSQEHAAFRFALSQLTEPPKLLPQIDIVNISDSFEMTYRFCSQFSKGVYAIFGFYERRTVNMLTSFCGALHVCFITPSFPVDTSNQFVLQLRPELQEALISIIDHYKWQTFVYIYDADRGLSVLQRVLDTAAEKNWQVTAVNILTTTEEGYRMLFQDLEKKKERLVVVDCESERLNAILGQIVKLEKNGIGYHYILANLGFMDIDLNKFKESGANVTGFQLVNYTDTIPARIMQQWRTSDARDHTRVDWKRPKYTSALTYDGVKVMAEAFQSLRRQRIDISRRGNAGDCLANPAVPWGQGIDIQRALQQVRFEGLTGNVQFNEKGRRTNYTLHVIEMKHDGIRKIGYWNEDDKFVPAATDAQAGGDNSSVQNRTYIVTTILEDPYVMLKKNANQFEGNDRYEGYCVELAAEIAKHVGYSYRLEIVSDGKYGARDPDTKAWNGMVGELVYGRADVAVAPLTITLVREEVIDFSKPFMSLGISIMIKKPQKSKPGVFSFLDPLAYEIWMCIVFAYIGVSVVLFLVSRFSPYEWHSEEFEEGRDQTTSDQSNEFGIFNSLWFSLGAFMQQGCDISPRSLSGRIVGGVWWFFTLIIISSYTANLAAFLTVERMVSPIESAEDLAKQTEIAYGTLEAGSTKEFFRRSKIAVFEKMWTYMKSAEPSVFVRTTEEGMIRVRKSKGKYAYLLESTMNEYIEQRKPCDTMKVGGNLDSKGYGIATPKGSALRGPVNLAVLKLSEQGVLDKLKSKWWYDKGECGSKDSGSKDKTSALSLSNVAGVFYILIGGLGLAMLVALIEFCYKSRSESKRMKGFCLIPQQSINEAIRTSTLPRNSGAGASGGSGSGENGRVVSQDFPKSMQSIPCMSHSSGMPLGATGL

[4] = biological target: ACP-GluA1ΔNTD (ACP-GluA1 with the N-terminal domain deleted) (mouse); assay: single-molecule fluorescence imaging (TIRF), distribution of spot signal intensities; living HEK293 cells, plasma membrane, various number densities of expressed molecules; intensity histograms of the initial ten frames fitted with the sum of four (references: two) lognormal functions for monomers, dimers, trimers, tetramers; incidental colocalizations not told apart from true assemblies; also with 0.1 mM AMPA or 10 mM L-glutamate (fractions not altered)
[5] = biological target: ACP-GluA1ΔNTD (ACP-GluA1 with the N-terminal domain deleted) (mouse); assay: single-molecule fluorescence tracking (TIRF), colocalization durations, single colour; living HEK293 cells, plasma membrane, 33 ms per frame, colocalization = two spots within 240 nm; duration histograms fitted with a single exponential, lifetimes corrected for photobleaching; 37 °C (monomer references ACP-TM and Halo7-TM at 22 °C); GluA1 and GluA2 homodimers also with TARP2-mGFP overexpression (lifetimes not significantly altered)
[6] = biological target: Halo7-GluA1 (GluA1 tagged with Halo7 at its N-terminus, pcDNA3.1B) (mouse); assay: as above

ACP-GluA1ΔNTD (ACP-GluA1 with the N-terminal domain deleted) (domain or fragment), sequence (P23818 378-907, stated change not applied): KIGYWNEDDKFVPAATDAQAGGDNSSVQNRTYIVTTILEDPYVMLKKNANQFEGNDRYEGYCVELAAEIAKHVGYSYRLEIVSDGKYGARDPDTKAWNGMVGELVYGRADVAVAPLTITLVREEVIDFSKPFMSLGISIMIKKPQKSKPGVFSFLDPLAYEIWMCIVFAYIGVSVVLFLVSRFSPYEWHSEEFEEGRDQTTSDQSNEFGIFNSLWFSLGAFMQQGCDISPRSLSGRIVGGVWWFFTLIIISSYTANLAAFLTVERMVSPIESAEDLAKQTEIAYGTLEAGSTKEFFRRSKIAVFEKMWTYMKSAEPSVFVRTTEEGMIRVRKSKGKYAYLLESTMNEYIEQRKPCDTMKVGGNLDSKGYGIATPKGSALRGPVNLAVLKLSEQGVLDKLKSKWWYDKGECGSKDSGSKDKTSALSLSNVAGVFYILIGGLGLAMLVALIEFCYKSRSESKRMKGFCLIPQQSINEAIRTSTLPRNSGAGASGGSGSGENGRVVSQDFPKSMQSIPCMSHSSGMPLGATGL
ACP-GluA1 (GluA1 tagged with the acyl carrier protein at its N-terminus) (receptor), sequence (P23818 19-907): as the sequence (P23818 19-907) above
Halo7-GluA2 (GluA2 tagged with Halo7 at its N-terminus, pcDNA3.1B), sequence (P23819 25-883): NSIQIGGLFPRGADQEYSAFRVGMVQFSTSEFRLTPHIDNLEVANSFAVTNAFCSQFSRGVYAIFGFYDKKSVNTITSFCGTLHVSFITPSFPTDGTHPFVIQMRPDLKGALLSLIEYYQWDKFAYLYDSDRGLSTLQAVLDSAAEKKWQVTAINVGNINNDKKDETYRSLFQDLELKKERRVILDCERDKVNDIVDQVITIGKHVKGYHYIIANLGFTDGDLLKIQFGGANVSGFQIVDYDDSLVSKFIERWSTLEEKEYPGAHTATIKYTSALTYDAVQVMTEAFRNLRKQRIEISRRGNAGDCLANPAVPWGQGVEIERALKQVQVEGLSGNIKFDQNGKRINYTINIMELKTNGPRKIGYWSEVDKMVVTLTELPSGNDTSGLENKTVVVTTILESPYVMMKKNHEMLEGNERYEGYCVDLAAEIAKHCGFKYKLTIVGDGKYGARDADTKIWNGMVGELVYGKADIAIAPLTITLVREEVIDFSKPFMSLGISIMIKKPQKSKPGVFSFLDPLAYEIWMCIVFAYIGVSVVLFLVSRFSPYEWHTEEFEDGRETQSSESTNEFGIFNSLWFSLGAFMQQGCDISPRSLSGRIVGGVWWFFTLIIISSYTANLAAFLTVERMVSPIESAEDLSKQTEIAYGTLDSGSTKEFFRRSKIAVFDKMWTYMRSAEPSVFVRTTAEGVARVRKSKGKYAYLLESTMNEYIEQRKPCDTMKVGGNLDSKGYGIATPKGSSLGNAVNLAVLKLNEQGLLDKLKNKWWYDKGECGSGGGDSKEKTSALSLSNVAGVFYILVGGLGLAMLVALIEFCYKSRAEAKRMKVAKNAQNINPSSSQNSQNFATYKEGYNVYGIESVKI
Halo7-GluA1 (GluA1 tagged with Halo7 at its N-terminus, pcDNA3.1B) (receptor), sequence (P23818 19-907): as the sequence (P23818 19-907) above

colocalization lifetime, homodimer [1]: 164 ms
colocalization lifetime, homotetramer [1]: 98 ms
colocalization lifetime, homotrimer [1]: 117 ms
colocalization lifetime, GluA1/A2 heterodimer (average of the two tag combinations) [2]: 334 ms
colocalization lifetime, GluA1/A2 heterotetramer (average of the two tag combinations) [2]: 208 ms
exponential lifetime, GluA1/A2 heterodimer [2]: 335 ms
colocalization lifetime, homodimer [3]: 177 ms
Substance: ACP-GluA1 (GluA1 tagged with the acyl carrier protein at its N-terminus) (receptor)

colocalization lifetime, homodimer [5]: 100 ms
colocalization lifetime, homotetramer [5]: 41 ms
Substance: ACP-GluA1ΔNTD (ACP-GluA1 with the N-terminal domain deleted) (domain or fragment)
tetramer fraction, fold smaller than that of full-length GluA1 (at 1–1.2 copies μm^−2) [4]: 3 to 4 fold

colocalization lifetime, homodimer [6]: 164 ms
Substance: Halo7-GluA1 (GluA1 tagged with Halo7 at its N-terminus, pcDNA3.1B) (receptor)

— PMC6868016
